Test results: patent US20110118131A1 (published 2011)

The binders below were run against T1, IL-1β (UniProt P01584 117-269) (assay: Biacore, periplasmic extract).
T1 construct: Antigen immobilised on the Biacore chip

Binder | binding result | fold difference in affinity vs original [fold]
XPA23 light chain L96K (Fab, V domains shown) VH: EVQLLESGGGLVQPGGSLRLSCAASGFTFSKYFMFWVRQAPGKGLEWVSVISPSGGMTRYADSVKGRFTISRDNSKNTLYLQMNSLRAEDTAVYYCARVGYGGNSDYWGQGTLVTVSS VL: DIQMTQSPSSVSASVGDRLTIICRASQDINRWLAWYQQTPGNAPKLLIHSATSLQSGVPSRFSGSGSGTDFTLTINSLQPEDFATYYCQQADSFPKTFGGGTKVEIK | no binding | –
XPA23 light chain N30A (Fab, V domains shown) VH: EVQLLESGGGLVQPGGSLRLSCAASGFTFSKYFMFWVRQAPGKGLEWVSVISPSGGMTRYADSVKGRFTISRDNSKNTLYLQMNSLRAEDTAVYYCARVGYGGNSDYWGQGTLVTVSS VL: DIQMTQSPSSVSASVGDRLTIICRASQDIARWLAWYQQTPGNAPKLLIHSATSLQSGVPSRFSGSGSGTDFTLTINSLQPEDFATYYCQQADSFPLTFGGGTKVEIK | – | 0.61
XPA23 light chain N30H (Fab, V domains shown) VH: EVQLLESGGGLVQPGGSLRLSCAASGFTFSKYFMFWVRQAPGKGLEWVSVISPSGGMTRYADSVKGRFTISRDNSKNTLYLQMNSLRAEDTAVYYCARVGYGGNSDYWGQGTLVTVSS VL: DIQMTQSPSSVSASVGDRLTIICRASQDIHRWLAWYQQTPGNAPKLLIHSATSLQSGVPSRFSGSGSGTDFTLTINSLQPEDFATYYCQQADSFPLTFGGGTKVEIK | – | 1
XPA23 light chain N30D (Fab, V domains shown) VH: EVQLLESGGGLVQPGGSLRLSCAASGFTFSKYFMFWVRQAPGKGLEWVSVISPSGGMTRYADSVKGRFTISRDNSKNTLYLQMNSLRAEDTAVYYCARVGYGGNSDYWGQGTLVTVSS VL: DIQMTQSPSSVSASVGDRLTIICRASQDIDRWLAWYQQTPGNAPKLLIHSATSLQSGVPSRFSGSGSGTDFTLTINSLQPEDFATYYCQQADSFPLTFGGGTKVEIK | – | 0.81
XPA23 light chain N30L (Fab, V domains shown) VH: EVQLLESGGGLVQPGGSLRLSCAASGFTFSKYFMFWVRQAPGKGLEWVSVISPSGGMTRYADSVKGRFTISRDNSKNTLYLQMNSLRAEDTAVYYCARVGYGGNSDYWGQGTLVTVSS VL: DIQMTQSPSSVSASVGDRLTIICRASQDILRWLAWYQQTPGNAPKLLIHSATSLQSGVPSRFSGSGSGTDFTLTINSLQPEDFATYYCQQADSFPLTFGGGTKVEIK | – | 0.68
XPA23 light chain N30Q (Fab, V domains shown) VH: EVQLLESGGGLVQPGGSLRLSCAASGFTFSKYFMFWVRQAPGKGLEWVSVISPSGGMTRYADSVKGRFTISRDNSKNTLYLQMNSLRAEDTAVYYCARVGYGGNSDYWGQGTLVTVSS VL: DIQMTQSPSSVSASVGDRLTIICRASQDIQRWLAWYQQTPGNAPKLLIHSATSLQSGVPSRFSGSGSGTDFTLTINSLQPEDFATYYCQQADSFPLTFGGGTKVEIK | – | 0.6
XPA23 light chain L96S (Fab, V domains shown) VH: EVQLLESGGGLVQPGGSLRLSCAASGFTFSKYFMFWVRQAPGKGLEWVSVISPSGGMTRYADSVKGRFTISRDNSKNTLYLQMNSLRAEDTAVYYCARVGYGGNSDYWGQGTLVTVSS VL: DIQMTQSPSSVSASVGDRLTIICRASQDINRWLAWYQQTPGNAPKLLIHSATSLQSGVPSRFSGSGSGTDFTLTINSLQPEDFATYYCQQADSFPSTFGGGTKVEIK | – | 0.23
XPA23 light chain N30I (Fab, V domains shown) VH: EVQLLESGGGLVQPGGSLRLSCAASGFTFSKYFMFWVRQAPGKGLEWVSVISPSGGMTRYADSVKGRFTISRDNSKNTLYLQMNSLRAEDTAVYYCARVGYGGNSDYWGQGTLVTVSS VL: DIQMTQSPSSVSASVGDRLTIICRASQDIIRWLAWYQQTPGNAPKLLIHSATSLQSGVPSRFSGSGSGTDFTLTINSLQPEDFATYYCQQADSFPLTFGGGTKVEIK | – | 0.65
XPA23 light chain L96W (Fab, V domains shown) VH: EVQLLESGGGLVQPGGSLRLSCAASGFTFSKYFMFWVRQAPGKGLEWVSVISPSGGMTRYADSVKGRFTISRDNSKNTLYLQMNSLRAEDTAVYYCARVGYGGNSDYWGQGTLVTVSS VL: DIQMTQSPSSVSASVGDRLTIICRASQDINRWLAWYQQTPGNAPKLLIHSATSLQSGVPSRFSGSGSGTDFTLTINSLQPEDFATYYCQQADSFPWTFGGGTKVEIK | – | 4.49
XPA23 light chain L96Y (Fab, V domains shown) VH: EVQLLESGGGLVQPGGSLRLSCAASGFTFSKYFMFWVRQAPGKGLEWVSVISPSGGMTRYADSVKGRFTISRDNSKNTLYLQMNSLRAEDTAVYYCARVGYGGNSDYWGQGTLVTVSS VL: DIQMTQSPSSVSASVGDRLTIICRASQDINRWLAWYQQTPGNAPKLLIHSATSLQSGVPSRFSGSGSGTDFTLTINSLQPEDFATYYCQQADSFPYTFGGGTKVEIK | no binding | –
XPA23 light chain N30S (Fab, V domains shown) VH: EVQLLESGGGLVQPGGSLRLSCAASGFTFSKYFMFWVRQAPGKGLEWVSVISPSGGMTRYADSVKGRFTISRDNSKNTLYLQMNSLRAEDTAVYYCARVGYGGNSDYWGQGTLVTVSS VL: DIQMTQSPSSVSASVGDRLTIICRASQDISRWLAWYQQTPGNAPKLLIHSATSLQSGVPSRFSGSGSGTDFTLTINSLQPEDFATYYCQQADSFPLTFGGGTKVEIK | – | 0.72
XPA23 light chain N30E (Fab, V domains shown) VH: EVQLLESGGGLVQPGGSLRLSCAASGFTFSKYFMFWVRQAPGKGLEWVSVISPSGGMTRYADSVKGRFTISRDNSKNTLYLQMNSLRAEDTAVYYCARVGYGGNSDYWGQGTLVTVSS VL: DIQMTQSPSSVSASVGDRLTIICRASQDIERWLAWYQQTPGNAPKLLIHSATSLQSGVPSRFSGSGSGTDFTLTINSLQPEDFATYYCQQADSFPLTFGGGTKVEIK | – | 0.64
XPA23 light chain L96Q (Fab, V domains shown) VH: EVQLLESGGGLVQPGGSLRLSCAASGFTFSKYFMFWVRQAPGKGLEWVSVISPSGGMTRYADSVKGRFTISRDNSKNTLYLQMNSLRAEDTAVYYCARVGYGGNSDYWGQGTLVTVSS VL: DIQMTQSPSSVSASVGDRLTIICRASQDINRWLAWYQQTPGNAPKLLIHSATSLQSGVPSRFSGSGSGTDFTLTINSLQPEDFATYYCQQADSFPQTFGGGTKVEIK | – | 0.21
XPA23 light chain N30F (Fab, V domains shown) VH: EVQLLESGGGLVQPGGSLRLSCAASGFTFSKYFMFWVRQAPGKGLEWVSVISPSGGMTRYADSVKGRFTISRDNSKNTLYLQMNSLRAEDTAVYYCARVGYGGNSDYWGQGTLVTVSS VL: DIQMTQSPSSVSASVGDRLTIICRASQDIFRWLAWYQQTPGNAPKLLIHSATSLQSGVPSRFSGSGSGTDFTLTINSLQPEDFATYYCQQADSFPLTFGGGTKVEIK | – | 1.59
XPA23 light chain N30T (Fab, V domains shown) VH: EVQLLESGGGLVQPGGSLRLSCAASGFTFSKYFMFWVRQAPGKGLEWVSVISPSGGMTRYADSVKGRFTISRDNSKNTLYLQMNSLRAEDTAVYYCARVGYGGNSDYWGQGTLVTVSS VL: DIQMTQSPSSVSASVGDRLTIICRASQDITRWLAWYQQTPGNAPKLLIHSATSLQSGVPSRFSGSGSGTDFTLTINSLQPEDFATYYCQQADSFPLTFGGGTKVEIK | – | 0.97
XPA23 light chain N30P (Fab, V domains shown) VH: EVQLLESGGGLVQPGGSLRLSCAASGFTFSKYFMFWVRQAPGKGLEWVSVISPSGGMTRYADSVKGRFTISRDNSKNTLYLQMNSLRAEDTAVYYCARVGYGGNSDYWGQGTLVTVSS VL: DIQMTQSPSSVSASVGDRLTIICRASQDIPRWLAWYQQTPGNAPKLLIHSATSLQSGVPSRFSGSGSGTDFTLTINSLQPEDFATYYCQQADSFPLTFGGGTKVEIK | – | 0.69
XPA23 light chain L96N (Fab, V domains shown) VH: EVQLLESGGGLVQPGGSLRLSCAASGFTFSKYFMFWVRQAPGKGLEWVSVISPSGGMTRYADSVKGRFTISRDNSKNTLYLQMNSLRAEDTAVYYCARVGYGGNSDYWGQGTLVTVSS VL: DIQMTQSPSSVSASVGDRLTIICRASQDINRWLAWYQQTPGNAPKLLIHSATSLQSGVPSRFSGSGSGTDFTLTINSLQPEDFATYYCQQADSFPNTFGGGTKVEIK | – | 0.06
XPA23 light chain N30R (Fab, V domains shown) VH: EVQLLESGGGLVQPGGSLRLSCAASGFTFSKYFMFWVRQAPGKGLEWVSVISPSGGMTRYADSVKGRFTISRDNSKNTLYLQMNSLRAEDTAVYYCARVGYGGNSDYWGQGTLVTVSS VL: DIQMTQSPSSVSASVGDRLTIICRASQDIRRWLAWYQQTPGNAPKLLIHSATSLQSGVPSRFSGSGSGTDFTLTINSLQPEDFATYYCQQADSFPLTFGGGTKVEIK | – | 0.74
XPA23 light chain N30G (Fab, V domains shown) VH: EVQLLESGGGLVQPGGSLRLSCAASGFTFSKYFMFWVRQAPGKGLEWVSVISPSGGMTRYADSVKGRFTISRDNSKNTLYLQMNSLRAEDTAVYYCARVGYGGNSDYWGQGTLVTVSS VL: DIQMTQSPSSVSASVGDRLTIICRASQDIGRWLAWYQQTPGNAPKLLIHSATSLQSGVPSRFSGSGSGTDFTLTINSLQPEDFATYYCQQADSFPLTFGGGTKVEIK | – | 0.71
XPA23 light chain N30K (Fab, V domains shown) VH: EVQLLESGGGLVQPGGSLRLSCAASGFTFSKYFMFWVRQAPGKGLEWVSVISPSGGMTRYADSVKGRFTISRDNSKNTLYLQMNSLRAEDTAVYYCARVGYGGNSDYWGQGTLVTVSS VL: DIQMTQSPSSVSASVGDRLTIICRASQDIKRWLAWYQQTPGNAPKLLIHSATSLQSGVPSRFSGSGSGTDFTLTINSLQPEDFATYYCQQADSFPLTFGGGTKVEIK | – | 0.61
XPA23 light chain L96R (Fab, V domains shown) VH: EVQLLESGGGLVQPGGSLRLSCAASGFTFSKYFMFWVRQAPGKGLEWVSVISPSGGMTRYADSVKGRFTISRDNSKNTLYLQMNSLRAEDTAVYYCARVGYGGNSDYWGQGTLVTVSS VL: DIQMTQSPSSVSASVGDRLTIICRASQDINRWLAWYQQTPGNAPKLLIHSATSLQSGVPSRFSGSGSGTDFTLTINSLQPEDFATYYCQQADSFPRTFGGGTKVEIK | no binding | –
